Source: patent publication US20140274782A1, “AFFINITY REAGENTS AND METHODS FOR DETECTION, PURIFICATION, AND PROTEOMIC ANALYSIS OF METHYLATED PROTEINS” (The Board of Trustees of the Leland Stanford Junior …, priority 2013, published 2014)

T1: G9a and GLP (Homo sapiens, UniProt Q96KQ7+Q9H9B1)
T1 sequence (Q96KQ7 2-1210 limits assumed): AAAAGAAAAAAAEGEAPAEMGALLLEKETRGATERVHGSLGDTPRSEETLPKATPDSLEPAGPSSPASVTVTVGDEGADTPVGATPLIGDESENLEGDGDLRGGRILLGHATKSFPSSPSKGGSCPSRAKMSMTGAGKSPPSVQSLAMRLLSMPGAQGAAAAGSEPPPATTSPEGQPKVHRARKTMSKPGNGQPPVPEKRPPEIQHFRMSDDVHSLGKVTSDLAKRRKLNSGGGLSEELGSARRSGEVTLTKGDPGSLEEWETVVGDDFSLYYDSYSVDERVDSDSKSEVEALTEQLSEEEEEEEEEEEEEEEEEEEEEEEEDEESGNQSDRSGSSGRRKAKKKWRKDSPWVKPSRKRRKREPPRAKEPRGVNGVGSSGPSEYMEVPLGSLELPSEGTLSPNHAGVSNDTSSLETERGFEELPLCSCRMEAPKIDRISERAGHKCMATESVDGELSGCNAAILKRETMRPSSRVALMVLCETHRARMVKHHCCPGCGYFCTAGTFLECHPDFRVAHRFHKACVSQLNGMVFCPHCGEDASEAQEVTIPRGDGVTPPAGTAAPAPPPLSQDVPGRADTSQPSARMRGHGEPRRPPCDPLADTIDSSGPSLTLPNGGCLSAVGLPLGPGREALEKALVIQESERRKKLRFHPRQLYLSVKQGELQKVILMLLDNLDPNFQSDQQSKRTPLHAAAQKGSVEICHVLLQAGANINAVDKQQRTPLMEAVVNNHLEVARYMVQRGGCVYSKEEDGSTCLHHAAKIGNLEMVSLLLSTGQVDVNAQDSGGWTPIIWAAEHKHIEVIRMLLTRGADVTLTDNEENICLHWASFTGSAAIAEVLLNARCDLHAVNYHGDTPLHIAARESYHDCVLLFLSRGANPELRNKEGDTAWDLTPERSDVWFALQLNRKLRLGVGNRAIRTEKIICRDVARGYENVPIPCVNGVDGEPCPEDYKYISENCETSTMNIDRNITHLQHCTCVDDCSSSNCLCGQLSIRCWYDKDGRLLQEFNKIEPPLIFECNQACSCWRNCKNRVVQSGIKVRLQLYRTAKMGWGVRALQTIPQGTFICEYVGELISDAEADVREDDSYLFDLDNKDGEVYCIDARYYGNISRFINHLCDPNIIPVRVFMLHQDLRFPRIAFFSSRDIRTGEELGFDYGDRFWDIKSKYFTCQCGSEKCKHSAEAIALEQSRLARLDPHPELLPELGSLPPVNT
T1 sequence (Q9H9B1 2-1298 limits assumed): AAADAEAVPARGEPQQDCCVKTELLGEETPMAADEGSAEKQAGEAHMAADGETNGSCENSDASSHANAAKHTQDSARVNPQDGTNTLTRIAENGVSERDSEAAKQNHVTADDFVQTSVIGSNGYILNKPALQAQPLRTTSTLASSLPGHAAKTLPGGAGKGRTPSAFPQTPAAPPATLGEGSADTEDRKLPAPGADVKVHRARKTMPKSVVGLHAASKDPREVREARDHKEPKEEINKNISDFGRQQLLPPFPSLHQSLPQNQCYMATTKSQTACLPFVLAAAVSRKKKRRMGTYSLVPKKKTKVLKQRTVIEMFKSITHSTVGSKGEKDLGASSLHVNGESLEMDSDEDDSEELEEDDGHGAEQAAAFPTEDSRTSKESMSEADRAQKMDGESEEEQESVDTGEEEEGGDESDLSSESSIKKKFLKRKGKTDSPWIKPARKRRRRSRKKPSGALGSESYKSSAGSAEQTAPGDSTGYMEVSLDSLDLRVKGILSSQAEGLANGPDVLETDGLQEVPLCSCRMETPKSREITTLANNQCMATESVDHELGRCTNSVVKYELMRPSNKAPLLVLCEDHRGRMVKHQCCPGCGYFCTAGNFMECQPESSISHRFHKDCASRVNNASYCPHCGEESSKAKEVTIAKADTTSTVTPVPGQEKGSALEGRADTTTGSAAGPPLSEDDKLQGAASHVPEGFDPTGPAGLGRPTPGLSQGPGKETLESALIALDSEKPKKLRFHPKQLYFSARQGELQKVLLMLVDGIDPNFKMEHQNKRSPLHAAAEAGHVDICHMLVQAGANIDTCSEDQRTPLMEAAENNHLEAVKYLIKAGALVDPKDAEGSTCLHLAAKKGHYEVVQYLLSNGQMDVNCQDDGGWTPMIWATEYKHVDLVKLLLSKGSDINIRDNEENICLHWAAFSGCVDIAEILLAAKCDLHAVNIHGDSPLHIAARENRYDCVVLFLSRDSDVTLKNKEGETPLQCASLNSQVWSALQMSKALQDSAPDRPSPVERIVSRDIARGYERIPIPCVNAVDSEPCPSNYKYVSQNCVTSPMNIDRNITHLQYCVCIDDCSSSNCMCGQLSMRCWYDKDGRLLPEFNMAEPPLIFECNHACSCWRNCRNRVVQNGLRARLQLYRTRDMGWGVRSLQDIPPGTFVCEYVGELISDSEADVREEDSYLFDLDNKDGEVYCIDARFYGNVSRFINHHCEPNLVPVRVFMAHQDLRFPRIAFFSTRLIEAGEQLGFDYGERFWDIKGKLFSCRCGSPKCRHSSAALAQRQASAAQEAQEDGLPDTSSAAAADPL

B1: DUT (protein, UniProt P33316 70-252, looked up)
Deoxyuridine 5'-triphosphate …: ASTVGAAGWKGELPKAGGSPAPGPETPAISPSKRARPAEVGGMQLRFARLSEHATAPTRGSARAAGYDLYSAYDYTIPPMEKAVVKTDIQIALPSGCYGRVAPRSGLAAKHFIDVGAGVIDEDYRGNVGVVLFNFGKEKFEVKKGDRIAQLICERIFYPEIEEVQALDDTERGSGGFGSTGKN
B2: SRP68 (protein, UniProt Q9UHB9 1-627, looked up)
Signal recognition particle …: MAAEKQVPGGGGGGGSGGGGGSGGGGSGGGRGAGGEENKENERPSAGSKANKEFGDSLSLEILQIIKESQQQHGLRHGDFQRYRGYCSRRQRRLRKTLNFKMGNRHKFTGKKVTEELLTDNRYLLLVLMDAERAWSYAMQLKQEANTEPRKRFHLLSRLRKAVKHAEELERLCESNRVDAKTKLEAQAYTAYLSGMLRFEHQEWKAAIEAFNKCKTIYEKLASAFTEEQAVLYNQRVEEISPNIRYCAYNIGDQSAINELMQMRLRSGGTEGLLAEKLEALITQTRAKQAATMSEVEWRGRTVPVKIDKVRIFLLGLADNEAAIVQAESEETKERLFESMLSECRDAIQVVREELKPDQKQRDYILEGEPGKVSNLQYLHSYLTYIKLSTAIKRNENMAKGLQRALLQQQPEDDSKRSPRPQDLIRLYDIILQNLVELLQLPGLEEDKAFQKEIGLKTLVFKAYRCFFIAQSYVLVKKWSEALVLYDRVLKYANEVNSDAGAFKNSLKDLPDVQELITQVRSEKCSLQAAAILDANDAHQTETSSSQVKDNKPLVERFETFCLDPSLVTKQANLVHFPPGFQPIPCKPLFFDLALNHVAFPPLEDKLEQKTKSGLTGYIKGIFGFRS
B3: HNRNPH3 (protein, UniProt P31942 1-346, looked up)
Heterogeneous nuclear …: MDWVMKHNGPNDASDGTVRLRGLPFGCSKEEIVQFFQGLEIVPNGITLTMDYQGRSTGEAFVQFASKEIAENALGKHKERIGHRYIEIFRSSRSEIKGFYDPPRRLLGQRPGPYDRPIGGRGGYYGAGRGSMYDRMRRGGDGYDGGYGGFDDYGGYNNYGYGNDGFDDRMRDGRGMGGHGYGGAGDASSGFHGGHFVHMRGLPFRATENDIANFFSPLNPIRVHIDIGADGRATGEADVEFVTHEDAVAAMSKDKNNMQHRYIELFLNSTPGGGSGMGGSGMGGYGRDGMDNQGGYGSVGRMGMGNNYSGGYGTPDGLGGYGRGGGGSGGYYGQGGMSGGGWRGMY
B4: DBR1 (protein, UniProt Q9UK59 1-544, looked up)
Lariat debranching enzyme: MRVAVAGCCHGELDKIYETLALAERRGPGPVDLLLCCGDFQAVRNEADLRCMAVPPKYRHMQTFYRYYSGEKKAPVLTLFIGGNHEASNHLQELPYGGWVAPNIYYLGLAGVVKYRGVRIGGISGIFKSHDYRKGHFECPPYNSSTIRSIYHVRNIEVYKLKQLKQPIDIFLSHDWPRSIYHYGNKKQLLKTKSFFRQEVENNTLGSPAASELLEHLKPTYWFSAHLHVKFAALMQHQAKDKGQTARATKFLALDKCLPHRDFLQILEIEHDPSAPDYLEYDIEWLTILRATDDLINVTGRLWNMPENNGLHARWDYSATEEGMKEVLEKLNHDLKVPCNFSVTAACYDPSKPQTQMQLIHRINPQTTEFCAQLGIIDINVRLQKSKEEHHVCGEYEEQDDVESNDSGEDQSEYNTDTSALSSINPDEIMLDEEEDEDSIVSAHSGMNTPSVEPSDQASEFSASFSDVRILPGSMIVSSDDTVDSTIDREGKPGGTVESGNGEDLTKVPLKRLSDEHEPEQRKKIKRRNQAIYAAVDDDDDDAA

Target: T1, G9a and GLP
Test: Triple SILAC pull-down after UNC0638 treatment of 293T cells, DMSO/UNC0638 ratio of protein captured by 3×MBT;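 note: mass spectrometry (Q-Exactive) SILAC quantitation, DMSO/UNC0638 ratio computed after subtracting 3×MBTD355N mutant pull-down background, only proteins with at least twofold 3×MBT over mutant signal considered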
Format: cell-based
Set-up: endogenous in cells; host or cells: HEK 293T
Conditions: SILAC ratio DMSO/UNC0638 of protein pulled down with 3xMBT; UNC0638 in heavy SILAC media

Relative to UNC0638 UNC Heavy [log base 2] | Molecule
0.62 | B1
−0.08 | B2
0.28 | B3
0.54 | B4

Same assay, conditions: SILAC ratio DMSO/UNC0638 of protein pulled down with 3xMBT; UNC0638 in light SILAC media

Relative to UNC0638 UNC Light [log base 2] | Molecule
0.04 | B1
0.76 | B2
0.39 | B3
0.13 | B4

Same assay, conditions: average of UNC Light and UNC Heavy experiments

Relative to UNC0638 Average [log base 2] | Molecule
0.33 | B1
0.34 | B2
0.34 | B3
0.33 | B4

Tested on: 3×MBT domain of L3MBTL1
Test: Triple SILAC pull-down, 3xMBT/3xMBTD355N ratio (cytoplasmic, nuclear and chromatin fractions of 293T cells);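 note: proteins quantified with MaxQuant, requiring at least two unique peptides and quantification in both label directions, normalized to the mean of proteins from a digested loading control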
Format: binding, human
Conditions: SILAC ratio, pull-down 3xMBT vs 3xMBTD355N; experiment with UNC0638 in heavy SILAC media

Molecule | 3xMBT/D355N UNC Heavy [log base 2]
B1 | 1.63
B2 | 2.41
B3 | 1.94
B4 | 3.11

Same assay, conditions: SILAC ratio, pull-down 3xMBT vs 3xMBTD355N; experiment with UNC0638 in light SILAC media

Molecule | 3xMBT/D355N UNC Light [log base 2]
B1 | 2.37
B2 | 3.28
B3 | 2.57
B4 | 2.56
